For the assay, the target named is T1, human GLUT4 (human, UniProt P14672 1-509, limits assumed).
T1 construct: The ubiquitin-half fusion partners and the limits of the construct are not described; also called Glut 4 transporter
T1 sequence (looked up): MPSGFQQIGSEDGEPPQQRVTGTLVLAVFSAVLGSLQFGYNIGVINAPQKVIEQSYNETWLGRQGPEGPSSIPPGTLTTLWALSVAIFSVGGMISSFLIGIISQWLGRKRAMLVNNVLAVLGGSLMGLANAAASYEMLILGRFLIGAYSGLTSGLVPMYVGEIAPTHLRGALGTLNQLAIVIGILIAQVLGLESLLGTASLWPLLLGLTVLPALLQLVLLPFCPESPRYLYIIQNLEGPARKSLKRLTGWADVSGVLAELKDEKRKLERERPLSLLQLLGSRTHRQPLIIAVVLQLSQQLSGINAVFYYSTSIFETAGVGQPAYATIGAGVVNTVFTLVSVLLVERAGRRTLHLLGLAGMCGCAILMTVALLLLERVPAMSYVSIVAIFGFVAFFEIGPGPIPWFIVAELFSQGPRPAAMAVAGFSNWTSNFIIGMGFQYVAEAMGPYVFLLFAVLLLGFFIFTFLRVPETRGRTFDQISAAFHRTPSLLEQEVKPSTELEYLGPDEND
The experiment in a line: split-ubiquitin protein interaction assay in yeast.

These results are taken from patent US20050074845A1 (Sanofi, published 2005).

B1: yeast Erg4 (enzyme)
chain: not shown
notes: The ubiquitin-half fusion partners and the limits of the construct are not described; also called Erg4 protein; sterol C-24(28)-reductase
For the molecule B1, the binding result is “binds”.
